assay: label from the status in PepcDB records
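Also: failed if final PepcDB status was selected cloned or expressed and not failed if soluble or beyond.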

Row | Sequence | protein production
1 | MTFSANFSLVLPEVVLAIAALVLLVAGTFRGKVGAIFTLAAVASLIAAAATAVLGPKGVAFGGVYVADAAATYAKVAIYLSSAVAVVLGDRWLAQRGDQKFEYAVLVILAALGMGVTASAGDLISLYIGVELQSLALYVLAAMRRDDAKSSEAGLKYFVLGALSSGLLLYGSSLIYGFTGSTHFSQIALAAAHGGSHGVGLLFGLVFVICGLAFKVSAAPFHMWTPDVYEGAPTPVVGFFSAAPKLAAMMMFARVLGDAFPASEEQWRQILVIAALLSVFVGAFAGLAQSNLKRLWAYSSIANVGYALLGVAAGGEVGLQSMLIFMTLYMVDVTGFFACLQALNRDGKPMETIQDMAGLVKQRPGIALAMTAFSLSALGLPPFSGFWAKYFVFKAAMGSGDVMLQWAAVIGLVGSVVAAFYYLRLIKAMWFDDAAGAVDAPSPSARAVGFAAAIFSFPIVLVALVWLEPAAKAAAAAFGHA | failed
2 | MTFSKELREASRPIIDDIYNDGFIQDLLAGKLSNQAVRQYLRADASYLKEFTNIYAMLIPKMSSMEDVKFLVEQIEFMLEGEVEAHEVLADFINEPYEEIVKEKVWPPSGDHYIKHMYFNAFARENAAFTIAAMAPCPYVYAVIGKRAMEDPKLNKESVTSKWFQFYSTEMDELVDVFDQLMDRLTKHCSETEKKEIKENFLQSTIHERHFFNMAYINEKWEYGGNNNE | not failed
3 | MTGGAAAAPPGRGAAFSWCLFDFANSGYPTVVATFVFSAYVTKAVAATPEAGTAAWGYAMGASGLLIALLAPIFGAVADHSGRRKPWLGLFSLLCVASTALMWTIRPDPAFLLAALVLAALSNAAFEIGGVFYNAMLPDVTTPERMGRLSGWAWGLGYAGGLACLVIALLALVQADPPPFGLDKAAAEPVRATLVLVALWFVVFGWPLFAFVPERPTGRVLALGAAARGAIDSLKGLPALFRGDPRLGWFLLARMLYTEGLNTLFAFGGIYAAGTFDMGFDQIIVFGIGLNITAGLGAFAFGWIDDWLGSPRTIVVGLIGLIGFCVAVLLVEDTAWFVGLALTMGIFFGPVQAASRTHIARVAPPDRRGELFGLFALTGKISAFAGPLAVGLATDLSGSQRLGMATVVVFLVAGLGLLVKTRAPRG | failed
4 | MTGPTTDADAAVPRRVLIAEDEALIRMDLAEMLREEGYEIVGEAGDGQEAVELAELHKPDLVIMDVKMPRRDGIDAASEIASKRIAPIVVLTAFSQRDLVERARDAGAMAYLVKPFSISDLIPAIELAVSRFREITALEGEVATLSERLETRKLVERAKGLLQTKHGMTEPDAFKWIQRAAMDRRTTMKRVAEVVLETLGTPKDT | not failed
5 | MTGSWLETLLLPFTVPFLRDAMIIALLVAVPTALLSCFLVLKGWALMGDAISHAVLPGVVLAYVAGLPLGVGAFAAGLGCALVTGYLKDNSRIKQDTVMGVVFSGMFGLGIVLHTSIRTDVHLDHILFGDMLGVGSSDLLESGLIALLVVGAIALKGRDLLLHAFDPQQARAIGLPVGLLHYGLLCLLALTIVGALKATGILLTVALLIGPGAIAFLFTRRFSSMLLAAVVISSLASVLGVYISLFLDSAPAPTIVLLLTLTFIAAFMVSRQRDRQRARGVDRPV | failed
6 | MTGTSDDEEGKWKNRSTTLRRLGRQYSPDVTPEVASRRLKQWIVGNPVLLGLLHENGWTASRRVLTPKQVEQIVRVLGEP | failed
7 | MTGTSNIPTHGKEHKDAPALLPLPAPNPHHTHAAHPGNPSHDRPPSRGKLFIKTHGCQMNEYDSAKMADVLTTTEALELTDNPEEADIILINTCSIREKAQEKVFSQLGRWRALKTSGRDVIIGVGGCVASQEGEAIVKRAPYVDLVFGPQTLHRLPDMIRARREQNRPQVDIRFPEIEKFDHLPTPRAEGPSAFVSIMEGCSKYCSFCVVPYTRGEEVSRPFEDVLTEIAHLATQGVREINLLGQNVNAYRGAMDPGPSNNTNPAPPPYADLGLLIRAIAQFESIGRIRFTTSHPLEFSDSLVEAYRDVPQLANHLHLPVQSGSDRILSAMKRGYTALEFKSKIRKLRAVRPDISISSDFIIGFPGESDTDFQKTMQLIEDIGFDQSFSFIYSRRPGTPASNLEDHTPDEIKRTRLEHLQKHINTYAADISKRMIGTVQTVLVEGPSKKNPNELTGKTENMRPVNFPGHPRLIGQFIDVHITEALSNSLRGRVHTNLEHHHHHH | not failed
8 | MTGYGKTFALLGTCATLLGPPLSAQTGSVLSDLQNEEVQARYRAAAAERIACPRIEGDAALMAAFAKDAASKWDRAAMGCATEYGARAMEALSLPTNLIWAVATFRTDNIETHLQVLGAHLDYFEVLDKSYSAHYQGIEMATELGLRWEQARERSETLMTRIDPLVPKLTEARLLRAAYLLASTLRETPPEVQNTAVAAALEDLQIAIAENPEALDGLGPLLLGQVLAVLPEFLGGDILAAIDLLEQAHALNPTDLSVHHTLVEAYLGERETDKALALLRHAASIDPSTENPQDYADEMKYLGGLALRAGAPDLARQMAGHRSAILAAHPQLDPRKEMAALGHGGADPLTGKKPDDLN | failed
9 | MTHETDQLYQAVQATRPLLRNITAAVERGTLREGVTVGQRAILEGLSLTPGATAPQLGAALQMKRQYISRILQEVQRAGLIERRTNPEHARSHRYWLTPRGEAIITAIRADEMAKLALFSEGFSSVELTAYHKVQLALTRFFADLAKEA | not failed
10 | MTHTTANQVIHYVDQDGNTVFDDNDSQTLDYERSVTIDEVTGEITAYGDWKAVDGDEFGSVTSSDKPGYAIDKPVVSGEKPTITNGKDGKVSDVEVTVTYTALEHHHHHH | not failed
11 | MTHVQTMLETYPKDLGDIDRAKLIECIKACFECAQTCTACADACLSEDMVAELTKCIRTNLDCADICVATGNMLSRHTGYDANVTRAVLEACRTVCKACADECEQHASMHEHCRACAEACRRCEKACADLLGSLG | failed
12 | MTHVTLRSEFETLIDPYAPVAQVGTGFDFTEGPIWHPIDHYLLFSDMPGDVRRRWDARRGMAEVKRPSNKCNGMTYDAELNLIVCEHATSSLIRERPDGRREVLASHFGGQELNSPNDVCVHSSGAIYFSDPWYGRMPVYGVERPRQLGFQGVYRVMPGGEPKLVVDRNLFDQPNGLCFSPDERLLYVNDTVQALIRVFDVNADGTLSNARVFASSIKSELEPGLPDGMKCDQHGNVWVTAPGGVWVYSPRGELLGKVRVPELVANLAWGGPDFRTLYLTSTHSVYAIPTRVGPRHEPYMSGRRGGAGASAGPAAAAPILTDGEMRLDPQRCAMIIQDLQNDVIMDGGAFDGSGAPAHAKQQHVVENVRRLAEAARARGVAIIHVWFVVEPGAPGVTLNAPLFEGLVDSKAMVRGSWGAAPVSGLEPRPGDFVVEKMRMSAWEGTRLETILKATGRDMIINTGAWTNMSVEHTARTGADKGYFMIVPEDCCSTMNADWHSASINFAMQNVAIVTRADAVIRALGLEHHHHHH | failed
13 | MTIAVTGSIATDHLMRFPGRFSEQLLPEHLHKVSLSFLVDDLVMHRGGVAGNMAFAIGVLGGEVALVGAAGADFADYRDWLKARGVNCDHVLISETAHTARFTCTTDVDMAQIASFYPGAMSEARNIKLADVVSAIGKPELVIIGANDPEAMFLHTEECRKLGLAFAADPSQQLARLSGEEIRRLVNGAAYLFTNDYEWDLLLSKTGWSEADVMAQIDLRVTTLGPKGVDLVEPDGTTIHVGVVPETSQTDPTGVGDAFRAGFLTGRSAGLGLERSAQLGSLVAVLVLESTGTQEWQWDYEAAASRLAGAYGEHAAAEIVAVLA | not failed
14 | MTIIKYIKFVVIIVIVTIVFSCSKNEAGNSEYDPSLPISLTDFFPIQGGMATRMVIEGANFGTDLSQIKVFFNQKEASILNVKNSIIYLLVPKLPGNDCIVTVKVGNQEARFTRNFQYIENYSVTTIAGQPGTNLFVEGTLAAAQFGPVQHLAIDDENNLFITERNGSDGKGTCSVLNEESGTVTFLFKASDNLNVPTVNAQTQNVYIPLDGGYTFYELNPVNQWIAKSRLVLHPSKEQQEAGMDDFEINWKHSLAFSRYDNMIYTRSYGGDLIKVDPETRVGQKIGNFFPNTDSFIVAHPTQPEILYIAYAAKHVIYTYNIETGEHKLFAGAFGQSGWNDGIATDAEFNSPRQMSLDMEGNIYIADSGNHCIRMIDKNGIVTTPIGQPGEAGYADGSPDMALLNDPRGVAVNSEGDVYIADLGNRCIRKLTLQ | failed
15 | MTIKQTDNINDDDLVYSNATDLPVGVKKSPKMSPTARVGLLVFGVIAAVGWGAIAFSRGETINSVWLVLAAVGSYIIAFSFYARLIEYKVVKPKDQRATPAEYVNDGKDYVPTDRRVLFGHHFAAIAGAGPLVGPVMAAQMGYLPGTLWIILGVIFAGAVQDYLVLWVSTRRRGRSLGQMVRDEMGTVGGAAGILATISIMIIIIAVLALIVVNALADSPWGVFSITMTIPIALFMGVYLRYLRPGRVTEVSIIGVALLLLAIVAGGWVADTSWGVEWFTWSKTTLALALIGYGIMAAILPVWLLLAPRDYLSTFMKIGVIGLLAVGILFARPEVQMPSVTSFALEGNGPVFSGSLFPFLFITIACGALSGFHALISSGTTPKLVEKESQMRMLGYGGMLMESFVAMMALITAVILDRHLYFSMNAPLALTGGDPATAAEWVNSIGLTGADITPEQLSEAAESVGESTVISRTGGAPTLAFGMSEILSGFIGGAGMKAFWYHFAIMFEALFILTTVDAGTRVARFMMTDTLGNVPGLRRFKDPSWTVGNWISTVFVCALWGAILLMGVTDPLGGINVLFPLFGIANQLLAAIALALVLVVVVKKGLYKWAWIPAVPLAWDLIVTMTASWQKIFHSDPAIGYWAQNANFRDAKSQGLTEFGAAKSPEAIDAVIRNTMIQGILSILFAVLVLVVVGAAIAVCIKSIRARAAGTPLETTEEPDTESEFFAPTGFLASSRDKEVQAMWDERYPGGAPVSSGGH | not failed
16 | MTIKRVGILGAGKVGIVLAGLALKAGYEVRISGSGSVDKIDLTISTLVPGAIASENAEVVANSDIIILAIPLSRYKNIDPTLLKGKLVIDAMNYWWETDGIREEVLDPTLTSSEQVQNYFKDSTIVKTFNHMGYHNLQEEALPKGDPKRKALFVTGDNHAAVDEVTKFVDSMGFDQVVHYKLTDGIMTEPGSPLFGASLKYQELKQIIDNFDHTDFGRKISSTLNLEHHHHHH | not failed
17 | MTIKVFSPKYPTELEEFYAERIADNPLGFIQRLDLLPSISGFVQKLREHGGEFFEMREGNKLIGICGLNPINQTEAELCKFHINSAYQSQGLGQKLYESVEKYAFIKGYTKISLHVSKSQIKACNLYQKLGFVHIKEEDCVVELGEETLIFPTLFMEKIL | failed
18 | MTINNDPMRDAIVDTAVELAAHTSWEAVRLYDIAARLAVSLDEIRLYFREKDELIDAWFDRADSRMLKEAESAGFLDLVASERIHHLIMIWLDALAVQRKVTRQMIMSKLEFGHIHIQIPAVMRVSRTVQWVREAAQRDATFMRRALEESTLTTIYLMTFFFWMRDESENSRHTRQFLKRHLTMAAWLGQKVYGKDPEKSTVPHKQQIPLQFD | not failed
19 | MTIQQWLFSFKGRIGRRDFWIWIGLWFAGMLALFSLAGKNLLDIQTAAFCLVCLLWPTAAVMVKRLHDRGRSGAWALLMILAWMLLAGNWVMLPGMWQWVVGRFIPTLILVMMLIDLGAFVGVQGENKFGKATQDVKFKAEP | failed
20 | MTITILAFIIALFFAMNIGASGAAASMGIAYGAGAVRKRQAALWISGIGVFLGAMIGGGEVVKTIGSGIIPASILNVHIVVIILGSSAISLFIANIAGIPLSTSEVTVGSIVGVGVAFQAVFTDKLLVIVMYWLIIPIAAFFLAFLIGQLLKKTEAKLRWLKQQKWARLLTALVILTGFLEAFSAGMNNVANSVGPLVGAGLLSVGSGTFLGGLFVAIGAICLGSRVIETNGKKITEFSLLQGSCVSGLGASLVIGASLFGIPVPQTQITTCSIIGIGLSEKGRAIFRKSVILKLMKVWVVSPVFSLVISYSLVKIFLDFDLYSVAVVLCVFLATLGSISLMKHARQKQSDVRRNRDHVKSIVGGRGRKREPAAWRDF | failed
21 | MTITTERGSQQYAYTDLPRLMGLMTGDEKHGPAATSTLDALWVLYDRVLRVAPERVDEPGRDRFLLSKGHGPMAYYAVLAAKGFLPVDWLPDFGSYDSPLGHHPDRVLVPGAEIGSGSLGHGLPIAVGTALGLRAQGLGEPRVWVLTGDAELDEGSNHEAIAYAGAAGLERLHTIVIDNSSATHALTGGIAARFEAAGWATTTVDGHDHEALHAAFTAPHEGRPLAVVARVRPKDA | failed
